In the domain aggregation screens of Martell et al. (2025):

Experiment: soluble fraction after stress (log2 fold change); higher = more stays soluble; pooled small domains, quantitative proteomics
Settings: stress: 75 degC
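Note: 20 min heating vs room temperature control held 20 min.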

Row | Sequence | soluble fraction (log2)
1 | HMALLKRQDEILMYLYTQNKWITGNELAQLFHVSLRTIRNDISFINTEKSNSVLSNRNKGYHIAKDFVYNE | -1.26
2 | HMALPDSEKRQWLVDEVNERGLKLPDDVLEYLFARVGRSQAHLVDVIEKLDFESLAQSRKLTIPFVREVLK | -0.225
3 | HMALPRYFFRTRENGAVLFKTPVNNHQNRLEMHQIAAINIRNETVKPLGDTVLTDEETELIADWMRERKTV | -0.782
4 | HMALSVRNRMSDLLRMLGDGEFHRFENLFSLEEGRHGIVVTFLAMLELAKEQLVEISQGESLAPIYLKSLA | -1.05
5 | HMAMDVKEVLLPGVGLRYEFDNSDGDRIGVIAKRSGDFEVVRYTAADRDAAQPMFRLTDEEADALAQILGA | 0.224
6 | HMAMDYYAIGQRIRKFRKAHDWSQEELAEKVEISTTHMSHIETGSTKLSLPVLVSLANVLDVRTDDLLF | -3.81
7 | HMAMKFQDIVRQKRKELGLTQEQAARRLGVSPAAVSKWESGQSLPDTPLFAPLARLLHTDLNTLLSFE | -1.21
8 | HMAMTQNVDLAGRIVFNEKKEEVFNFGKHKGRSVAEVFEKEPSYYDWMLKGDFPAETKQVLTALRLRGLS | -0.186
9 | HMAMTRTEYLNQLKHYLKRLPHTDYEEAMDYFKEYFEEAGPENEAQVIQDLGNPKEAAYEILSQLL | -0.0595
10 | HMANDNFPLKLGSKGPRVLQLKTMLIQSLSNDALPKGRSSDAFDSELEALLSRNNLPTVIDETNFRVLTK | -0.0514
11 | HMANFGSILRNLRISRDITQSELAAKLGVSRSTVGMYETGAREPDFEAMEAIADTFNVDMDYLVGRSQ | -0.258
12 | HMANLAQITKTNAVALALKDVGAYNSEDLMKFIDLDKVVLGEDGKPQLEDTINSLKESSPYLFQ | 0.134
13 | HMANMTAKQINMFGDKLSRDKDFQSYYIAKSGDSREQYAQDIKGKLLDPFYVNAWMPYLEKIGFVPS | 0.0935
14 | HMANPEFAGYINGKPYFGPTHQHRGVKMLGATHTRNPHPLVWDSIAESLANYDSRFRWSGGQIL | -0.853
15 | HMANTAKVNVDTANLRETADENSKILKQLSLNDNLEVVEETGDWYKVKNSNVTGYVRKDLVTVEN | 0.31
16 | HMANTLDPMDLKQIISLHLDGFSNRKIGATLGISRNTVNTYMRLFSVSDYALKELLTLDNATLDKLFPS | -2.06
17 | HMANYYEILGVKHDATEAEIKAAYKQAAKSAHPDAGGSNEKMQEVNAAWEVLGNAQKRAEYDARMA | 0.173
18 | HMAPAGGITRQDLFAWGLMGGEGSREKRQQLKKSLGLPSHLGTSGFLDALNLIATRDQVEALLHK | -0.564
19 | HMAPAILTVQVKPDKIREIIGPGGKMIRMIQSETNTRVEVDDSGLVKIAAVSKEEGEAALKMVSDITME | 0.331
20 | HMAPDAPDGFVHRWIRAEMLGQEDKSNVHRRMQEGYELVRADEYPDSDLPVAEGRYAGIIGVGGLLLARF | -0.206
21 | HMAPDDTAVWSAFIGWFRTAPDGPNPLGAYAAKLGEEGLDAAEVGRRMTVIVRLFAEKPEGAEVFYDRTYA | -2.66
22 | HMAPDYYALLGVPRNATTAEVRKAFRGKALEQHPDRGGDEESFRLLSKAYDVLSDSERRKYYDRTG | -0.0151
23 | HMAPEKLVHELVGLSLRAGNLDLLAATLSAHKTVLSKESTAEYVKAGLAIEPNHLPLRVLAEQDLGWS | -1.17
24 | HMAPFVIQQGQDVRLISKGPGFAVSNDGKALTNAAEGQLARARTANGQTVSGIARQGGIIEIA | -0.0321
25 | HMAPGIGDSKYFSHIYEMKHIDTIIDNDKGDRLIEHFEIQDTPFIFTKHWTSAFGFSKRQQEIITDYLSYF | 0.12
26 | HMAPGVHVEALLPYTAGSLVSQIREYGNVDAVEYRDTGILLQADVDERLAAQIMDQALEDPV | 0.0715

Row | Sequence | soluble fraction (log2)
27 | HMAPLADQIVDLLKEHDGFLPLHDNSSPEDIRATVGTSKKAFKQAIGGLFREKRIVIGPTGIRLIS | -0.694
28 | HMAPLATIHVSSLSQKPFYLYGTFEDRRGNHLFFLEQIMGENKSIPVAMPSSAINPKIHASLTPPKG | -0.494
29 | HMAPLQDENGDLTFSYNGKTYTVNVNSEEDRNSFAEDFNKENGKKFSWFKERAGLQHYVFYDTEM | -0.00699
30 | HMAPLVTLEADGNGAVKLSNLAGHSIREVAGALGGAGLSLIPVGSGTSWKQNPAPGTVLHSGDTVTVYF | 0.177
31 | HMAPPIQQQVESLMNSFAKIGVTVPMLESRLQHAMSAVTANELVMLRKIGASIRDGFATVAEQFPA | -1.14
32 | HMAPPPPEGYIHRWIRESVMGFDDKKNLSARIREGFELVRAEEYPDYEAPTVMDGKHAGVIANGGLLLARF | -0.201
33 | HMAPQQARAAKTRVKLLDAAATVVRRDGIQAMTLARVAEEAGVSKGGLLHHFGSKEELVTGMLEQ | -0.21
34 | HMAPRASDALTERELDVLRVVADGASVAEAAEMLVVSRETVKKHLGNIYAKLGVHSKMQAVALLREEGV | -0.788
35 | HMAPRKNIRLLRAAQDKAAAEGDHETVDAIRGQIAALIETLPVQYREEYLLQEKGRENGLKLAIENAAK | 0.663
36 | HMAPSLQISLKQAIITAQQQHPGSKALNADFDGARGTPRYVIETLLPTGELRELTIDAQSGQVMEDHPDR | 0.234
37 | HMAPSPEGAAILRESVESVARDQVDRVALTMTARGYTTAEIAAALMVDRSTISRRLYAMRDRYHAQQDNAQ | -0.526
38 | HMAPSVNEVAWAQKIIDAHAEAAAAGKGLVVVDGKLIENLHVEEAKQLLSLSDAIAKNDASNG | 0.0645
39 | HMAPTGTDRQTPHTRDELYLVLSGTGTFVNGDARHPFGPGDALFVPAGAEHRFEDFSDDFRTWVVFYGAEG | -0.163
40 | HMAPVVAILTRQLPLPQAQQLAGQTALVRVVKGGPGNEAELEFAGQNIQVKLPPGRQLTAGEMVTVAFALS | -0.762
41 | HMAQASEPMLALIRLKWWEEQINSPVKGDSLPLLSQLNSHISAGYLSRSQVTSLIQRWQDYA | -0.983
42 | HMAQFNELLFELRQDRKMTQEDLAKVLFVTSGTISNYENGVHLPDIEKLISLADFFGVTTDYLLG | -0.189
43 | HMAQLKYEQIKSYLQAEAVKPESATRMPTVRELMRRFNVSLVTVNRALSELEHAKVIVRRQGAGIVAAQ | -0.662
44 | HMAQLPADMSRVKSADVSDAQLREFVQKAQASGQTETQLFREFSRRGMPTNEINILRSRMVGLQNN | 0.152
45 | HMAQLPPTATARATSDVSGLTASAALRTLLEQGFVPQIHGSGKVSRQHPPAGTLLEPGSTIQLFLEPS | 0.261
46 | HMAQLSDMLTYLRKRKGLSQQELANTLKISRSAIGMYETGKREPDLETLEVFADFYNVDMNTLTGKA | -0.245
47 | HMAQNILPGQKNAIKSLATSAGFSQQELDSYLSQNYGKTLNNLSQKEGASLISGLQDGSIKKP | 0.988
48 | HMAQPIPSGSDIREAREAAGMNLRDFARMVGGGAIGTWSHYETGKPIRVKSISPEVWQRVRDFILQHGK | -0.676
49 | HMAQRAADEARTHEILGLLRQARAALDHGGTARAARLRASIAEKLPAAPALPAWFARQLEQVDSQLAELQD | -0.768
50 | HMAQRFDLGDKLNPQSSEFEYLGTSSRTGVSTYRYKNVPTQLFFGRQIGDIVVGVRRGMITLTIYNL | 0.0868
51 | HMAQSTALVNLAQAEINKRGLTQTEVQARLSEEGINVNSISPAEYPKYQKQILSILDQMQKEKQLSKEV | 0.287
52 | HMAQVDAVQQVLQAFPALRSGQSQHLSQVVAALRQRGILTVGTKTTAWFAQWASVFQLLPLQVPNRIRYQS | 0.0672

Row | Sequence | soluble fraction (log2)
53 | HMARGRETILLVEDEPAVRGLVHATLRLHGYTVLEARHGIEALLTSTKFVGPIHLLLTDVVMPQMS | 0.0984
54 | HMARHIHFEVHVQQAGRWSIHAQFGAGQREKAIEEAKKIEKTPGFDSVKVVKETYDSDLGNHQDTTIYRGP | -1.18
55 | HMARKTIFHSLLGELEQRIGRLPAGTILPAEQALADEYGVSKPTLRRALAELAEHGLITKENGIGSVVI | -0.577
56 | HMARLAGVDLPREKRIEIGLTYIYGIGLARSQEILKKAGINPDIRVKDLTDEQEQAIRNAMDGYIVEGDL | -1
57 | HMARLQEVVVRVPVEDGQTLAAIYREAEVIERADEGTGVLLTVRIPAPLLGRLRRLEGVHVQP | -1.07
58 | HMARRLELEDIPVDEVLFTASRNLVDAIEVMDPSRQAPMIQPWLKQALEWAVGALGFSKEDAVATLTSD | 0.157
59 | HMASAAHYEGVKTEGESDNDVITRVLTATGVTAEKDDIFVVKSLIADGKYSYTAYVYDGSVWAAMD | -0.236
60 | HMASALDVALNDFAEMRKKMRKPLTDRALALTLSELEKLAPGNDEKKIAILNQSIQRGWQGVFPLK | -0.336
61 | HMASDEVPGAGFKWREDVLLRVMEANGIDKSNRDDFVRHAVNFDDDDNNYLKKAEIEAAAAAWVESQSPA | -0.696
62 | HMASDLPTVTIMGKTFYTYVAKKGESFFGIANRFGWDPELLVKTNRELETPLDKGALIYYPVPKKPK | -1.32
63 | HMASIATLTVKALGGASDVVIRDKDGRIIWADRLPAGQSHRVFGHAPFNVAASHASRVQLSLLGKDVGRV | -1.37
64 | HMASISDRIRLLRAESHMTQEEFGRIFGISKPTVSFYEHGKSVPNDQIKTAIARYFGVSVDYLLGVTD | -2.14
65 | HMASKTGTITATSLNVRSGAATTYSILGTLSNGKTVTIYEESNGWYKINYNGGYGWVSKTYVSTG | -1.53
66 | HMASLASVAYETLRQALDNFQYVPGDRFSESEVGQQLGMSRTPVREALVRLQREGYISVLPKMGWVVNQ | -1.86
67 | HMASMHDGVAARLRAMVFERELAPGEFIDERRLAQQWQISRTPLREALKVLAAEGLVELVPRRGARVV | -1.12
68 | HMASPKEALWRSLAEEPDTWWDNRERKSQPGANPRSPDFKHKESGEALWIESRDTPTWVLETL | -0.196
69 | HMASQEESVATYIQDYYRNPKTGESMVSDDMVEEFYKTHPEWEDQADGSKEGMEAVLDNFNEFFEINYG | 0.333
70 | HMASSRPLAEGDFVRLRAGGATGRIESIKGQKATVQMGGLKVHAPLRDLLPVAEPIKQVSTASNT | -0.00256
71 | HMASVAKHIRRLRTERHMTQGDLAEKLFVTRQTVSAWETGKAQPDLETLERIAVVLGVEVTELIYGAP | -0.707
72 | HMASVVEQVQVSNDISLFRQQNSPYWQARFKVAGKWYTRTTKRTEQTQAAFRAAELRSEVQTKISQGIPLR | -2.56
73 | HMATESYYVLKADVPAKTLVTQEMVEEIKVSKGGAPVNSIKIDNIKEKGVYTSIPLLKGDVLSASNTG | 0.131
74 | HMATKVSSGATVRDVADLLGLSSAELIKKLMMMGEMATLTQTLTDESIKSIADEYDRKIEIVSAAE | -0.0786
75 | HMATNVLEISTRNKNILIQDSLNLVESFYSKSDNQYWYKLVFKTKDDLNKFLQEVSEDENTITYKTSSI | -0.359
76 | HMATPEINNLGRLRNAINQSNVNWHQIIKRLQNEYPNNWRQILIAIDRHDLLFRYDVENYIKYG | -2.31
